# Test results as given in patent US20260193335A1 (ZOETIS SERVICES, published 2026).
# Numbering of substitutions follows the chain as printed. In names and notes the source's numbering stands.
# B1: Anti-NGF antibody of Table 3, S434G (antibody)
# heavy: DVQLVESGGDLVKPGGSLRLTCVASGFTYSNYWMHWVRQAPGKGLQWVARIDPYGGGTKHNEKFKRRFTISRDNAKNTLYLQMNSLKTEDTATYYCVRSGYDYYFDVWGQGTLVTVSSASTTAPSVFPLAPSCGTTSGATVALACLVLGYFPEPVTVSWNSGALTSGVHTFPAVLQASGLYSLSSMVTVPSSRWLSDTFTCNVAHPPSNTKVDKTVRKTDHPPGPKPCDCPKCPPPEMLGGPSIFIFPPKPKDTLSISRTPEVTCLVVDLGPDDSDVQITWFVDNTQVYTAKTSPREEQFNSTYRVVSVLPILHQDWLKGKEFKCKVNSKSLPSPIERTISKAKGQPHEPQVYVLPPAQEELSRNKVSVTCLIKSFHPPDIAVEWEITGQPEPENNYRTTPPQLDSDGTYFVYSKLSVDRSHWQRGNTYTCSVSHEALHGHHTQKSLTQSPGK
# light: EIQMTQSPSSLSASPGDRVTITCRASENIYSFLAWYQQKPGKVPKLLIYNANTLAEGVPSRFSGSGSGTDFTLTISSLEPEDAATYYCQHHFGTPFTFGSGTKLEIKRSDAQPSVFLFQPSLDELHTGSASIVCILNDFYPKEVNVKWKVDGVVQNKGIQESTTEQNSKDSTYSLSSTLTMSSTEYQSHEKFSCEVTHKSLASTLVKSFQRSECQRE
# B2: Anti-NGF antibody of Table 3, S434I (antibody)
# heavy: B1 heavy with G440I
# light: B1 light
# B3: Anti-NGF antibody of Table 3, S434L (antibody)
# heavy: B1 heavy with G440L
# light: B1 light
# B4: Anti-NGF antibody of Table 3, S434K (antibody)
# heavy: B1 heavy with G440K
# light: B1 light
# B5: Anti-NGF antibody of Table 3, S434N (antibody)
# heavy: B1 heavy with G440N
# light: B1 light
# B6: Anti-NGF antibody of Table 3, S434M (antibody)
# heavy: B1 heavy with G440M
# light: B1 light
# B7: Anti-NGF antibody of Table 3, S434Q (antibody)
# heavy: B1 heavy with G440Q
# light: B1 light
# B8: Anti-NGF antibody of Table 3, S434P (antibody)
# heavy: B1 heavy with G440P
# light: B1 light
# B9: mAb6 anti-TGFβ antibody ZTS-120-5, wildtype (antibody)
# heavy: DVQLVESGGDLVKPGGSLRLTCVASGYTFSSNVMHWVRQAPGKGLQWVAYVIPIVDIAYYADSVKGRFTISIDNSKNTLYLQMNSLKTEDTATYYCARTLGLVLDAMDYWGQGTLVTVSSASTTAPSVFPLAPSCGTTSGATVALACLVLGYFPEPVTVSWNSGALTSGVHTFPAVLQASGLYSLSSMVTVPSSRWLSDTFTCNVAHPPSNTKVDKTVRKTDHPPGPKPCDCPKCPPPEMLGGPSIFIFPPKPKDTLSISRTPEVTCLVVDLGPDDSDVQITWFVDNTQVYTAKTSPREEQFNSTYRVVSVLPILHQDWLKGKEFKCKVNSKSLPSPIERTISKAKGQPHEPQVYVLPPAQEELSRNKVSVTCLIKSFHPPDIAVEWEITGQPEPENNYRTTPPQLDSDGTYFVYSKLSVDRSHWQRGNTYTCSVSHEALHSHHTQKSLTQSPGK
# light: EIQMTQSPSSLSASPGDRVTITCRASQSLGSSYLAWYQQKPGKVPKLLIYGASSRAPGVPSRFSGSGSGTDFTLTISSLEPEDAATYYCQQYADSPITFGQGTKLEIK
# notes: also called mAb6 ID No. 20
# B10: mAb6 anti-TGFβ antibody ZTS-120-7, wildtype (antibody)
# heavy: B9 heavy
# light: DIVLTQPPSLSVNLGQTARITCRASQSLGSSYLAWYQQKPGQAPKLVTYGASSRAPGIPDRFSGTNSGITATLTISGARAEDEADYYCQQYADSPITFGQGTKLEIK
# notes: also called mAb6 ID No. 24
# B11: mAb6 anti-TGFβ antibody ZTS-120-9, wildtype (antibody)
# heavy: B9 heavy
# light: DIVMTQSPGSLAGSPGQQVTMNCRASQSLGSSYLAWYQQKPGQHPELLIYGASSRAPGVPDRFSGSGSGTDFTLTISNLQAEDVANYYCQQYADSPITFGQGTKLEIK
# notes: also called mAb6 ID No. 28
# B12: mAb6 anti-TGFβ antibody ZTS-120-6, wildtype (antibody)
# heavy: QVLLVQSGADVRKPGASVKIFCKASGYTFSSNVMHWVRQTPAQGFEWMGSVIPIVDIATYARRFQGRLVLTADTSTNTAYMELRSLKSADTAVYYCARTLGLVLDAMDYWGQGSLVTVSSASTTAPSVFPLAPSCGTTSGATVALACLVLGYFPEPVTVSWNSGALTSGVHTFPAVLQASGLYSLSSMVTVPSSRWLSDTFTCNVAHPPSNTKVDKTVRKTDHPPGPKPCDCPKCPPPEMLGGPSIFIFPPKPKDTLSISRTPEVTCLVVDLGPDDSDVQITWFVDNTQVYTAKTSPREEQFNSTYRVVSVLPILHQDWLKGKEFKCKVNSKSLPSPIERTISKAKGQPHEPQVYVLPPAQEELSRNKVSVTCLIKSFHPPDIAVEWEITGQPEPENNYRTTPPQLDSDGTYFVYSKLSVDRSHWQRGNTYTCSVSHEALHSHHTQKSLTQSPGK
# light: B10 light
# notes: also called mAb6 ID No. 22
# B13: mAb6 anti-TGFβ antibody ZTS-120-8, wildtype (antibody)
# heavy: B12 heavy with S30T, M34I, H35S, S50G, T59N, R62Q, Q65K, R98S
# light: B11 light
# notes: also called mAb6 ID No. 26
# Target: T1, Feline FcRn (complex of FcRn-α subunit and β-microglobulin, C-terminal His tag) (feline, UniProt A0ABI7ZNY9 23-296; Q5MGS7 21-118)
# T1 construct: treated here as one molecule
# Test: SPR Biacore, FcRn amine-coupled on CM5, pH 6
# Description: (§1) Feline FcRn was isolated, prepared and mutant Fc IgGs were assayed against feline FcRn according to Strietzelg et. al. Standard RACE PCR was used to amplify feline FcRn-α subunit and β-microglobulin. FcRn-α subunit and β-microglobulin were co-transfected into HEK 293 cells and the FcRn complex was purified by IMAC affinity purification via the c-terminal His tag. KD's were measured by Biacore 3000 or Biacore T200 (GE Healthcare, Pittsburgh, PA, USA) using a CM5 sensor chip.
# (§2) FcRn was immobilized on the surface of the sensor using the standard amine immobilization method to reach the desired surface density. HBS-EP was used as the immobilization running buffer and 10 mM MES; 150 mM NaCl; 0.005% Tween20; 0.5 mg/mL BSA; pH6 and pH7.2 and PBS; 0.005% Tween20; 0.5 mg/mL BSA; pH7.4 were used for method running buffers and titrations. Fc mutant IgGs were flowed over receptor surfaces and affinity was determined using Scrubber2 software analysis (BioLogic Software Pty, Ltd., Campbell, Australia) or T200 evaluation software (Table 2). Blank runs containing buffer only were subtracted out from all runs. Flow cells were regenerated using 50 mM Tris pH8. Runs were performed at 15° C.
row,Binder,Kd [nM]
1,B1,9.58
2,B2,14.4
3,B3,8.67
4,B4,6.76
5,B5,6.94
6,B6,2.8
7,B7,4.8
8,B8,5.64

# Target: T1, Feline FcRn (complex of FcRn-α subunit …)
# Test: SPR Biacore, FcRn amine-coupled on CM5, pH 7.2
# Description: as §1, §2
row,Binder,Kd [nM]
1,B1,21.6
2,B2,18.1
3,B3,6.57
4,B4,5.06
5,B5,0.00847
6,B6,1.92
7,B7,0.0801
8,B8,0.0157

# Target: T1, Feline FcRn (complex of FcRn-α subunit …)
# Test: SPR Biacore, FcRn on sensor, pH 6; pH 6
# Description: as §1, with “As discussed in the above Example section, Feline” for “Feline”
# FcRn was captured on the surface of the sensor using a modified SA capture method. 10 mM MES; 150 mM NaCl; 0.005% Tween20; 0.5 mg/mL BSA; pH6 was used as capture, method running buffer and titrations. 1×HBS-P, 0.5 mg/mL BSA; pH7.4 was also used for method running buffer and titrations. Fc mutant IgGs were flowed over receptor surfaces and affinity was determined using T200 evaluation software or Biacore Insight Evaluation software. Blank runs containing buffer only were subtracted out from all runs. Flow cells were regenerated using 50 mM Tris pH8 or pH9. Runs were performed at 15° C.
row,Binder,Kd [nM]
1,B9,31.6
2,B10,30.2
3,B11,44.3
4,B12,14.3
5,B13,35.7
